test: soluble on expression in E. coli; label from the status in PepcDB or PDB records

| Sequence | soluble on expression in E. coli |
| --- | --- |
| MIKSALLVLEDGTQFHGRAIGAEGTAVGEVVFNTSMTGYQEILTDPSYSRQIVTLTYPHIGNVGTNASDEESSAVHAQGLVIRDLPLIASNYRNEEGLSEYLKRHNIVAIADIDTRKLTRLLREKGAQNGCIIVGELSDAALALEKAKAFPGLKGMDLAKEVTTKEMYQWLQGSWTLEGDLPAAKQPEDLPFHVVAYDYGVKRNILRMLVDRGCRLTVVPAQTPAEDVLKLNPDGIFLSNGPGDPEPCDYAITAIKRFLETDIPVFGICLGHQLLALASGAKTVKMKFGHHGGNHPVKDLDASCVMITAQNHGFAVDETSLPSNLRTTHVSLFDGSLQGLHRTDKAAFSFQGHPEASPGPHDAAPLFDHFIELIEAYRASSVSLNCSNSHK | not soluble |
| MIKVDHRPLYLQVIDKLKHDMEAGVYEEGEKLPSEFELSKQLGVSRATLREALRLLEEEGVVVRRHGVGTFVHTKPLFSAGIEELYSVTDMIRHADMEPGTIFLSSYQIEATDDDKRRFQTDNLDQLMMIERVRTADGVPIVYCLDKLPAELIGQHSVHEINSILDHLESGSDRMITHAVTTIEPIGFHEKVSEILECEAETGLLLLKQMHYDQYDTPVLYSYNYFRADKFTFHVVRKRVKA | not soluble |
| MIKVRVPDFSDKKFSDRWRYCVGTGRLGLALQKEYIETLKYVKENIDFKYIRGHGLLCDDVGIYREDVVGDEVKPFYNFTYIDRIFDSFLEIGIRPFVEIGFMPKKLASGTQTVFYWEGNVTPPKDYEKWSDLVKAVLHHFISRYGIEEVLKWPFEIWNEPNLKEFWKDADEKEYFKLYKVTAKAIKEVNENLKVGGPAICGGADYWIEDFLNFCYEENVPVDFVSRHAYTSKQGEYTPHLIYQEIMPSEYMLNEFKTVREIIKNSHFPNLPFHITEYNTSYSPQNPVHDTPFNAAYIARILSEGGDYVDSFSYWTFSDVFEERDVPRSQFHGGFGLVALNMIPKPTFYTFKFFNAMGEEMLYRDEHMLVTRRDDGSVALIAWNEVMDKTENPDEDYEVEIPVRFRDVFIKRQLIDEEHGNPWGTWIHMGRPRYPSKEQVNTLREVAKPEIMTSQPVANDGYLNLKFKLGKNAVVLYELTERIDESSTYIGLDDSKINGY | soluble |
| MIKVVGLGPGSKNALTLGTLEAVKNSQNIFFRTKKHPVVEYFDEIGIKYSTYDDKYETGESFDEVYDFIARDLVSKAKELKDIVYAVPGHPLVAEKSVQILIELCEKENIKVDIVPAVSFIDALMESLKIDPVKGLKIVDAFDIKNQILDKRLGIVITQVYNSFIASDVKLALLEYYKDDTEIYFVRAAGIENEESVRKIPLYELDRQSDIDYLTSVYVPCDINNNKDFYDLLNIMEILRGENGCPWDREQSHDTIKRALIEECYEAVEAIEKNDDDMMVEELGDVLFQVVFHAKIGKDEGYFNINDVISGICNKMIERHPHVFKNEQIKNSTEVLQKWDEIKRKQQDLNSYTEEMKHIPKILPALIRAEKVQKKASKVGFDFRNVEEALDKVLEETREVKDVYKGIIRDRIAEEVGDLIFSVVNIARLLDIDSEFALNYTIDKFIKRFYYIEKAAKDKNLKIESMSLEEMNALWDEAKLKIQ | not soluble |
| MILFVGFLLMEIVMPQISRTALVPYSAEQMYQLVNDVQSYPQFLPGCTGSRILESTPGQMTAAVDVSKAGISKTFTTRNQLTSNQSILMNLVDGPFKKLIGGWKFTPLSQEACRIEFHLDFEFTNKLIELAFGRVFKELAANMVQAFTVRAKEVYSARLEHHHHHH | not soluble |
| MILGTPKADWLAEFPRLADLIALRPSEWFNPAIAPSAEALADVGLGAADVADASARLQRFAPLIARLFPETAASGGIIESDLVEVATFHDALRQHYAAELPGRLWLKRDSHLPISGSIKARGGIYEVLAHAERLALEHGLVGLDDDYSRLAEADCRAFFARHRIAVGSTGNLGLSIGIIGAALGFQASVHMSADARQWKKDKLRAHGVTVVEYASDYSVAVEQGRREAAGDPYTHFVDDENSRDLFLGYAVAAERLRGQLDAAGIRVDSEHPLFVHLPCGVGGGPGGVAFGLKLAFGDAVHCLFAEPTHSPCMFLGVYTGRHEQVSVQDFGIDNRTAADGLAVGRPSGFVGRAMQRLLDGYYTVDDDELFRLLALLERSQGIRLEPSALAGATGIARVTREPQGYRERMGLTSARLANATHLVWATGGGMVPETEMRAYLERGRSLL | not soluble |
| MILHPRPSPIAAAMYQLRDIGVDAIILHGPSGCCFRTARLLEIDGIRVFTSAMGENDFIFGAMDKLRDVIAEVLEYLKKETPKSEKYKIGIVGTCASMIIGEDLESLIDDFDDIIIPVDIHSGLVDNTVGAIRAMDGALNAGLIDYSEYLEHHHHHH | not soluble |
| MILLSKQTPLGAGRHRKCYTHPDNARRCIKVIYNRDHGGDKEIRRELSYYAHLSRYLTDWSAIPRYYGTVETDCGTGYVYDMITDFNGAPSITLTEFAAQCRYEEDVAVLRRLLKKLKRYLLDNHIVTMSLKPQNILCQRISESEVVPVVCDNLGESTFIPLATWSTWCCERKLERVWQRFIAQPALAVALERDAQPKDKKRLALTSHEALEHHHHHH | not soluble |
| MILSVHILDQQTGKPAPGVEVVLEQKKDNGWTQLNTGHTDQDGRIKALWPEKAAAPGDYRVIFKTGQYFESKKLDTFFPEIPVEFHISKTNEHYHVPLLLSQYGYSTYRGS | soluble |
| MILSVTFSPSEVPLAGAIASISSIKIIAGAACLAFLKISLILFSLSPTHLLNTSGPLTAMKLASLSVATALAKRVLPVPGGPYNKTPLGGVIPSFLNALGYFSGHSTASLSSCFTSSNPPMSSQWTFGTSMRTSLKAEGSTIFKASLEHHHHHH | not soluble |
| MILVNRETRVLVQGITGREGQFHTKQMLSYGTKIVAGVTPGKGGMEVLGVPVYDTVKEAVAHHEVDASIIFVPAPAAADAALEAAHAGIPLIVLITEGIPTLDMVRAVEEIKALGSRLIGGNCPGIISAEETKIGIMPGHVFKRGRVGIISRSGTLTYEAAAALSQAGLGTTTTVGIGGDPVIGTTFKDLLPLFNEDPETEAVVLIGEIGGFDEEEAAAWVKDHMKKPVVGFIGGRSAPKGKRMGHAGAIIMGNVGTPESKLRAFAEAGIPVADTIDEIVELVKKALG | soluble |
| MIMQKRLLNRNSSVVKSRNCLARHQHESSISKLHVSLRLHRCLRPIVRFDFLHNAGSKVCSQNSCPSPQLHVGTMALFHTVFILWPHFCGILWTVHEKLYNYLLSIEVY | soluble |
| MINHKIFPTADAVVKSLADDMLAYSQQGQPVHISLSGGSTPKMLFKLLASQPYANDIQWKNLHFWWGDERCVAPDDAESNYGEANALLFSKINMPAQNIHRILGENEPQAEAERFAQAMAHVIPTENGTPVFDWILLGVGADGHTASLFPGQTDYADANLSVVASHPESGQLRVSKTAKVLQAAKRISYLVLGAGKAEIVEQIHTTPAEQLPYPAAKIHSTSGVTEWYLDSDAAAKIA | soluble |
| MININRYTLSNGLRVIHNEDNTTQMVALNLLYDVGARDEDPDHTGFAHLFEHLMFGGSIHVPDYDTPVQNAGGENNAWTNNDITNYYITLPRQNVETGFWLESDRMLSLDFNPRSLEVQRQVVIEEFKQRNLNQPYGDASHLLRALAYKVHPYQWPTIGKEISHIANATLEEVKAFFFKYYAPDNAILAVTGHITFEETVTLAEKWFGPIPRRNVAP | not soluble |
| MINKTQARRHKRKYKYRSKGNHSRSLLGMHTSPANSSMSQAIYSNDSLTTTDGVLGDESLSSETSIVSFTGENANKQKRQRLSESTENSIPEPAFLRSNVTSLTTSESDDIQQFFLENESLFQIEYKIDYKNYRDYTIVPSFGTVIPKSKCEIALICRPTGKSESDQMTISYKTVDSDNDLANGCFSEMEKIVIDIKGRSQESPIHSIPSSSGSSSTSSPSAKRRNIVDSDSD | not soluble |
| MINTMTLDNGVRIITEKMSTVRSVSIGIWVGTGSRYESAEENGISHFLEHMFFKGTNTRSAQEIAEFFDSIGGQVNAFTSKEYTCYYAKVLDDHAGQAIDTLSDMFFHSTFQKEELEKERKVVFEEIKMVDDTPDDIVHDLLSSATYGKHSLGYPILGTVETLNSFNEGMLRHYMDRFYTGDYVVISVAGNVHDELIDKIKETFSQVKPTTYNYQGEKPMFLPNRIVRKKETEQAHLCLGYPGLPIGDKDVYALVLLNNVLGGSMSSRLFQDIREKRGLCYSVFSYHSSFRDSGMLTIYAGTGHDQLDDLVYSIQETTSALAEKGLTEKELENGKEQLKGSLMLSLESTNSRMSRNGKNELLLKKHRSLDEMIEQINAVQKQDVSRLAKILLSASPSISLINANGELPKALIHLEHHHHHH | soluble |

— the DeepSol protein solubility set
